B1: anti-BACE1 peptide-antibody complex (peptide of SEQ ID NO: 1 fused to the anti-BACE1 antibody heavy chain, SEQ ID NO: 429, assembled with the anti-BACE1 … (antibody)
heavy: not shown
light: DIQMTQSPSSLSASVGDRVTITCRASQDVSTAVAWYQQKPGKAPKLLIYSASFLYSGVPSRFSGSGSGTDFTLTISSLQPEDFATYYCQQFPTYLPTFGQGTKVEIKRTVAAPSVFIFPPSDEQLKSGTASVVCLLNNFYPREAKVQWKVDNALQSGNSQESVTEQDSKDSTYSLSSTLTLSKADYEKHKVYACEVTHQGLSSPVTKSFNRGEC
B2: anti-BACE1 antibody comprising an anti-BACE1 antibody heavy chain of SEQ ID NO: 427 and an anti-BACE1 antibody light chain of SEQ ID NO: 428 (antibody, human IgG1, kappa)
heavy: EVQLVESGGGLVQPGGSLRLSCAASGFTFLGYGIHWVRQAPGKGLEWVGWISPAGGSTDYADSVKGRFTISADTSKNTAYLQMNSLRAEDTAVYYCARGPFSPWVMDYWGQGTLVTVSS
light: B1 light

Target: BACE1 (beta-secretase, beta-site APP cleaving enzyme), endogenous enzyme of HEK/hAPP cells (human, UniProt P56817 46-501)
Sequence (P56817 46-501): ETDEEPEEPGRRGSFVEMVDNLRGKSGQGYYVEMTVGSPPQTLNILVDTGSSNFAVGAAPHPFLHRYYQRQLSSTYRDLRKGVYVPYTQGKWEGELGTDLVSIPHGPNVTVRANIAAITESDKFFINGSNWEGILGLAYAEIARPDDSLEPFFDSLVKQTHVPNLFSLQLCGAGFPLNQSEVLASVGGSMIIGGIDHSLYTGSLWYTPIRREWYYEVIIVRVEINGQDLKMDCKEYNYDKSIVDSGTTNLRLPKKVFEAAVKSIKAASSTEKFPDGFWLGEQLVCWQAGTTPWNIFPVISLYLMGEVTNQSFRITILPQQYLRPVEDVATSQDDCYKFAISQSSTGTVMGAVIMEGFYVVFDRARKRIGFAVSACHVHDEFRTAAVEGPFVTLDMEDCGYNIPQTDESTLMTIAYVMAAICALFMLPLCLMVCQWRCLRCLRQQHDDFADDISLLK
Assay: cell-based or functional assay

Row | Binder | IC50 (read off the curve), Aβ1-40 secretion from HEK/hAPP cells (HTRF, Percent of Cntl)
1 | B1 | ~0.01 µM
2 | B2 | ~0.01 µM

Source: patent publication US20200188528A1 (FRED HUTCHINSON CANCER RESEARCH CENTER, published 2020)
